{"source": "the supplement of paper PMC10567573", "parents": {"B1": {"name": "TSN (parent)", "chain": "AFVVYLETETLVTREAVTEILGIE"}, "B2": {"name": "MGC27345 (parent)", "chain": "KYMPHLCQDSSGEVSCQCQLHPPR"}}}
{"variants_of": "B1", "experiment": "protein stability index of a GFP-peptide fusion (GPS, HEK-293T) (PSI 1-6); higher = more stable", "conditions": "c terminus: a fixed tail appended"}
{"variant": "V12Q", "protein stability index": 1.94}
{"variant": "V12P", "protein stability index": 1.74}
{"variant": "V12N", "protein stability index": 2.9}
{"variant": "V12T", "protein stability index": 4.69}
{"variant": "V12R", "protein stability index": 2.51}
{"variant": "V12Y", "protein stability index": 2.53}
{"variant": "E15H", "protein stability index": 1.85}
{"variant": "E15F", "protein stability index": 3.13}
{"variant": "E15V", "protein stability index": 3.11}
{"variant": "E15D", "protein stability index": 3.69}
{"variant": "E15M", "protein stability index": 3.51}
{"variant": "E15Y", "protein stability index": 2.25}
{"variant": "E15I", "protein stability index": 3.25}
{"variant": "E15S", "protein stability index": 2.65}
{"variant": "E15C", "protein stability index": 1.97}
{"variant": "E15L", "protein stability index": 2.17}
{"variant": "T18E", "protein stability index": 3.46}
{"variant": "T18N", "protein stability index": 4.21}
{"variant": "T18Q", "protein stability index": 3.84}
{"variant": "T18A", "protein stability index": 2.74}
{"variant": "T18G", "protein stability index": 1.49}
{"variant": "T18H", "protein stability index": 4.07}
{"variant": "T18F", "protein stability index": 2.48}
{"variant": "T18P", "protein stability index": 2.79}
{"variant": "T18L", "protein stability index": 2.24}
{"variant": "R14E", "protein stability index": 1.43}
{"variant": "R14H", "protein stability index": 3.6}
{"variant": "R14N", "protein stability index": 4.51}
{"variant": "R14S", "protein stability index": 1.54}
{"variant": "R14C", "protein stability index": 3.25}
{"variant": "R14P", "protein stability index": 2.84}
{"variant": "R14T", "protein stability index": 2.48}
{"variant": "R14A", "protein stability index": 3.41}
{"variant": "R14D", "protein stability index": 2.33}
{"variant": "R14Y", "protein stability index": 2.01}
{"variant": "R14M", "protein stability index": 4.2}
{"variant": "R14F", "protein stability index": 2.36}
{"variant": "R14K", "protein stability index": 4.19}
{"variant": "E19I", "protein stability index": 2.11}
{"variant": "E19H", "protein stability index": 2.31}
{"variant": "E19R", "protein stability index": 3.43}
{"variant": "E19C", "protein stability index": 3.83}
{"variant": "E19K", "protein stability index": 3.64}
{"variant": "E19V", "protein stability index": 3.19}
{"variant": "E19P", "protein stability index": 2.44}
{"variant": "E19Q", "protein stability index": 3.48}
{"variant": "E19N", "protein stability index": 3.7}
{"variant": "E19F", "protein stability index": 2.17}
{"variant": "E19S", "protein stability index": 1.96}
{"variant": "E19W", "protein stability index": 2.4}
{"variant": "E19L", "protein stability index": 3.65}
{"variant": "L21C", "protein stability index": 2.36}
{"variant": "L21A", "protein stability index": 3.48}
{"variant": "L21N", "protein stability index": 2.64}
{"variant": "L21E", "protein stability index": 1.97}
{"variant": "L21W", "protein stability index": 2.52}
{"variant": "L21S", "protein stability index": 2.04}
{"variant": "L21V", "protein stability index": 3.75}
{"variant": "L21P", "protein stability index": 2.34}
{"variant": "L21Y", "protein stability index": 2.1}
{"variant": "L21I", "protein stability index": 2.57}
{"variant": "L21G", "protein stability index": 2.44}
{"variant": "E24D", "protein stability index": 2.34}
{"variant": "E24S", "protein stability index": 2.53}
{"variant": "E24F", "protein stability index": 2.03}
{"variant": "E24A", "protein stability index": 3.43}
{"variant": "E24I", "protein stability index": 3.19}
{"variant": "E24L", "protein stability index": 3.3}
{"variant": "E24V", "protein stability index": 2.23}
{"variant": "E24G", "protein stability index": 2.84}
{"variant": "E24K", "protein stability index": 3.34}
{"variant": "E24Q", "protein stability index": 3.13}
{"variant": "E24R", "protein stability index": 2.27}
{"variant": "E24C", "protein stability index": 3.31}
{"variant": "E24W", "protein stability index": 1.53}
{"variant": "T13H", "protein stability index": 2.05}
{"variant": "T13F", "protein stability index": 3.68}
{"variant": "T13G", "protein stability index": 2.1}
{"variant": "T13Y", "protein stability index": 3.33}
{"variant": "T13C", "protein stability index": 2.48}
{"variant": "T13M", "protein stability index": 3.48}
{"variant": "T13D", "protein stability index": 1.81}
{"variant": "T13K", "protein stability index": 1.63}
{"variant": "T13A", "protein stability index": 2.44}
{"variant": "T13N", "protein stability index": 1.72}
{"variant": "T13E", "protein stability index": 1.06}
{"variant": "T13W", "protein stability index": 1.62}
{"variant": "T13V", "protein stability index": 2.31}
{"variant": "T13R", "protein stability index": 3.01}
{"variant": "T13I", "protein stability index": 1.31}
{"variant": "I23Y", "protein stability index": 3.36}
{"variant": "I23V", "protein stability index": 3.69}
{"variant": "I23L", "protein stability index": 2.26}
{"variant": "I23N", "protein stability index": 3.34}
{"variant": "I23D", "protein stability index": 1.42}
{"variant": "I23A", "protein stability index": 1.8}
{"variant": "I23H", "protein stability index": 2.75}
{"variant": "I23T", "protein stability index": 1.79}
{"variant": "I23K", "protein stability index": 1.55}
{"variant": "I23C", "protein stability index": 1.7}
{"variant": "I23Q", "protein stability index": 1.69}
{"variant": "I23W", "protein stability index": 1.79}
{"variant": "I23E", "protein stability index": 2.03}
{"variant": "I23F", "protein stability index": 2.36}
{"variant": "I20F", "protein stability index": 3.74}
{"variant": "I20R", "protein stability index": 3.48}
{"variant": "I20Y", "protein stability index": 1.56}
{"variant": "I20P", "protein stability index": 1.67}
{"variant": "I20Q", "protein stability index": 5.44}
{"variant": "I20A", "protein stability index": 2.66}
{"variant": "I20W", "protein stability index": 2.75}
{"variant": "I20E", "protein stability index": 1.28}
{"variant": "I20L", "protein stability index": 4.11}
{"variant": "I20N", "protein stability index": 1.98}
{"variant": "I20H", "protein stability index": 2.68}
{"variant": "I20D", "protein stability index": 1.6}
{"variant": "I20K", "protein stability index": 2.91}
{"variant": "I20M", "protein stability index": 3.81}
{"variant": "G22S", "protein stability index": 1.86}
{"variant": "G22F", "protein stability index": 3.47}
{"variant": "G22R", "protein stability index": 3.49}
{"variant": "G22E", "protein stability index": 2.82}
{"variant": "G22Y", "protein stability index": 3.71}
{"variant": "G22A", "protein stability index": 3.71}
{"variant": "G22P", "protein stability index": 2.86}
{"variant": "G22V", "protein stability index": 2.04}
{"variant": "G22K", "protein stability index": 1.74}
{"variant": "G22H", "protein stability index": 3.32}
{"variant": "G22N", "protein stability index": 2.33}
{"variant": "G22D", "protein stability index": 3.2}
{"variant": "A16E", "protein stability index": 2.77}
{"variant": "A16Q", "protein stability index": 2.67}
{"variant": "A16C", "protein stability index": 3.53}
{"variant": "A16W", "protein stability index": 3.37}
{"variant": "A16P", "protein stability index": 3.89}
{"variant": "A16V", "protein stability index": 3.75}
{"variant": "A16F", "protein stability index": 3.01}
{"variant": "A16N", "protein stability index": 1.96}
{"variant": "A16T", "protein stability index": 2.66}
{"variant": "A16Y", "protein stability index": 2.47}
{"variant": "A16D", "protein stability index": 1.97}
{"variant": "A16S", "protein stability index": 3.05}
{"variant": "A16M", "protein stability index": 2.01}
{"variant": "V17E", "protein stability index": 1.4}
{"variant": "V17P", "protein stability index": 3.55}
{"variant": "V17T", "protein stability index": 3.01}
{"variant": "V17G", "protein stability index": 2.21}
{"variant": "V17Q", "protein stability index": 3.14}
{"variant": "V17D", "protein stability index": 2.61}
{"variant": "V17Y", "protein stability index": 3.6}
{"variant": "V17A", "protein stability index": 2.01}
{"variant": "V17M", "protein stability index": 4.75}
{"variant": "V17H", "protein stability index": 2.62}
{"variants_of": "B2", "experiment": "protein stability index of a GFP-peptide fusion (GPS, HEK-293T) (PSI 1-6); higher = more stable", "conditions": "c terminus: a fixed tail appended"}
{"variant": "D9Y", "protein stability index": 1.67}
{"variant": "H5A", "protein stability index": 1.8}
{"variant": "M3A", "protein stability index": 2.24}
{"variant": "P22K", "protein stability index": 2.43}
{"variant": "K1C", "protein stability index": 3.03}
{"variant": "L20N", "protein stability index": 2.56}
{"variant": "L20I", "protein stability index": 2.79}
{"variant": "R24G", "protein stability index": 4.32}
{"variant": "P4Y", "protein stability index": 2.15}
{"variant": "S15Q", "protein stability index": 1.96}
{"variant": "V14Q", "protein stability index": 2.67}
{"variant": "C18N", "protein stability index": 4.32}
{"variant": "Y2G", "protein stability index": 2.87}
{"variant": "S10V", "protein stability index": 1.56}
